Data on two molecules can be found in patent US6451571B1, “Thymidine kinase mutants” (University of Washington, priority 1994, dated 2002).

Read-outs that look alike come from different tables or passages of the source.

One data set deals with ts13 BHK tk− cells. As to the kind of experiment: ED50 determination with GCV or ACV in transfected BHK tk− cells (Alamar Blue). It is filed as cell-based, baby hamster. The conditions noted are these: pooled G418-resistant transfectants, 4 days on nucleoside analog. How it is done:
Briefly, the cell transfections are performed as follows. Approximately 5×10^5 ts13 BHK tk^− cells (ATCC CRL-1632) are plated on 100 mm dishes in DMEM+10% calf serum. For each transfection 1 μg of pSV2neo and 10 μg of a pCMV construct (pCMV, pCMV:TK-wrong (HSVTK in the wrong orientation relative to the promoter), pCMV:HSVTK, pCMV:30, pCMV:75 or pCMV:132 DNA) in 0.25M CaCl2 are mixed with 0.5 ml 2×BBS (see Chen and Okayama) and preincubated at 37° C. at 2.5% CO2 […]. The CaCl2/DNA mix is added dropwise to the plates and mixed in well. After a 24 hour incubation at 37° C. in a 2.5% CO2 wet incubator, the cells are rinsed twice with Dulbecco PBS minus Ca/Mg and fed with fresh DMEM+10% calf serum. Plates are incubated at 37° C. with 6% CO2. After 72 hours post-transfection the cells are split 1:3 and plated in DMEM+10% calf serum containing G418 at 600 μg/ml.
The cells are selected on G418 (600 μg/ml) at 37° C. for 17 days. During this time the plates are pooled (for each DNA transfection) and split three times at a ratio of 1:3. Approximately 30-40 clones are selected in this manner for each transfected DNA containing a tk gene in the correct orientation. The pCMV and pCMV:TK-wrong transfections yielded between 130 and 140 clones each. […]
Determination of the fluorescence level of cells incubated in the presence of Alamar Blue directly relates to cell viability.
On the technique in general: Resazurin is reduced to fluorescent resorufin, in cell work by metabolically active cells.

Data set [1] can be described thus: Enzyme kinetics of purified TK, thymidine. It is filed as biochemical. The conditions noted are these: substrate thymidine. How it is done:
(§1) A single colony of pET23d:HSVTK, pET23d:30, pET23d:75 and pET23d:132 in BL21(DE3)tk^− cells is used to inoculate 5 ml of M9ZB medium (1% tryptone, 0.5% NaCl, 1×M9 salts, 1 mM MgSO4, 100 μM CaCl2 and 0.2% glucose) containing cabenicillin at 20 μg/ml. The culture is incubated at 37° C. overnight. The following day the 5 ml culture is used to inoculate 1L M9ZB+cabenicillin at 20 μg/ml and the culture allowed to grow at 37° C. to OD600 0.1. At that point IPTG is added to 0.4 mM and the culture incubated a further 3 hours. The cells are chilled on ice, pelleted by centrifugation and the pellets washed once in cell wash buffer (50 mM Tris, pH 7.5, 5mM EDTA, 10% sucrose) prior to freezing the pellets at −70° C. […]
(§2) A thymidylyl-sepharose column is used for a one step purification procedure (see Example 2). […] The extent of purification is monitored by Coomassie stained SDS:PAGE analysis and the concentration of purified protein determined using the BioRad Reagent (Bradford Reagent). […]
(§3) The kinetics of thymidine, ganciclovir and acyclovir phosphorylation by the wild-type, mutant 30 and 75 thymidine kinase enzymes with variant concentrations of radioactive nucleoside substrate are determined essentially as described in Example 3. Km and Vmax values are determined from double reciprocal plots and kcat values are calculated using the equation Vmax=kcat [Eo] where [Eo] is the total enzyme concentration. […]

Data set [2] is described as follows: Enzyme kinetics of purified TK, ganciclovir. Particulars: substrate ganciclovir. It is filed as biochemical. How it is done:
as §1, §2, §3

A further data set concerns BHK tk− cells. As to the kind of experiment: Sensitivity of guanylate kinase transfectant pools to ACV in TK expressing clones. It is filed as cell-based, baby hamster. The conditions noted are these: three days with ACV. How it is done:
pREP8-7, pREP8-7:hgmk and pREP8-7:mgmk are used to transfect BHK tk, TK-transfected clone C3 and 75-transfected clone D4. Histidinol is used to select pools of stable transfectants and to isolate individual clones.
As in Example 8, pools of transfectants are placed in 96 well microtiter dishes at 1000 cells/well. Eight replicates are incubated for three days in the presence of various GCV or ACV concentrations.

Take “WT: wild-type HSV-1 thymidine kinase with McKnight sequence (pT7:HSVTKII and derived vectors)”: the EC50 in the data set with ts13 BHK tk− cells (read-out: ED50 ACV) was found to be 25 µM; in the data set on ts13 BHK tk− cells (read-out: ED50 GCV), 20 µM. Moreover, the figures for the Michaelis-Menten constant (Km) in data set [1] and in data set [2] were 0.38 µM and 47.6 µM, respectively. Also, the kcat entry in data set [1] (per active site) is “.230 s⁻¹”; in data set [2] (per active site), “.050 s⁻¹”.

B1: Guanylate kinase: human or murine guanylate kinase expressed from pREP8-7 in wild-type TK clone C3 cells (protein, UniProt Q16774 2-197, looked up)
Guanylate kinase: SGPRPVVLSGPSGAGKSTLLKRLLQEHSGIFGFSVSHTTRNPRPGEENGKDYYFVTREVMQRDIAAGDFIEHAEFSGNLYGTSKVAVQAVQAMNRICVLDVDLQGVRNIKATDLRPIYISVQPPSLHVLEQRLRQRNTETEESLVKRLAAAQADMESSKEPGLFDVVIINDSLDQAYAELKEALSEEIKKAQRTGA
For B1, the “increased sensitivity to ACV relative to TK expression alone” value with BHK tk− cells is given as “approximately 2 fold”.

By Km is commonly meant the concentration of substrate that gives half-maximal velocity.
